Experiments:
293T cells = test: Cytochrome c release in 293T cells (confocal microscopy); type: cell-based, human
Method: (§1) Subcellular localization assays—Cells were seeded onto cover-slips in 6-well plates overnight, then transiently transfected with GFP-fusion expression plasmids. After 16 hours, cells were washed with PBS and fixed in 4% paraformaldehyde. For mitochondrial staining, cells were then incubated with anti-Hsp60 goat IgG (Santa Cruz, USA), followed by anti-goat IgG conjugated with Cy3 (Sigma). For cyt c staining, cells were incubated with monoclonal anti-cyt c IgG (PharMingen), followed by anti-mouse IgG conjugated with Cy5 (Amersham). Fluorescent images were collected and analyzed using a MRC-1024 MP laser-scanning confocal microscope (Bio-Rad). Subcellular fractionation assays were performed as described (Li, et al. 2000 Science 289:1159-1164). Briefly, cells (1×10^7 cells) suspended in 0.5 ml hypotonic buffer (5 mM Tris-HCl, pH 7.4, 5 mM KCl, 1.5 mM MgCl2, 0.1 mM EGTA, pH 8.0, and 1 mM DTT) were homogenized and cell extracts were centrifuged at 500×g for 5 min. The resulting supernatant was centrifuged at 10,000×g for 30 min at 4° C. to obtain the HM fraction. HM fraction was resuspended in 100 μl lysis buffer (10 mM Tris, pH 7.4, 150 mM NaCl, 1% Triton X-100, 5 mM EDTA, pH 8.0) for immunoblotting analysis.
The involvement of TR3/Bcl-2 interaction in TR3-induced cytochrome c release was also studied. […] Nor did transient expression of Bcl-2 alone.

MDA-MB-231 cells = test: GFP-TR3/ΔDBD localization and cytochrome c release in MDA-MB-231 cells; type: cell-based; conditions: MDA-MB-231, absence of any treatment
Method: as §1, with “The resulting supernatant was centrifuged at 10,000×g for 30 min at 4° C. to obtain the HM fraction. HM fraction was resuspended in 100 μl lysis buffer (10 mM Tris, pH 7.4, 150 mM NaCl, 1% Triton X-100, 5 mM EDTA, pH 8.0) for immunoblotting analysis.” left out
(§2) To study whether the TR3 nuclear-to-mitochondrial targeting pathway also occurs in breast cancer cells, a GFP-TR3 fusion construct was transfected into MDA-MB-231 cells. […] Next, GFP-TR3/ΔDBD was transiently transfected into ZR-75-1 or MDA-MB-231 cells, stained for mitochondria (Hsp60) and cytochrome c (Cyt c), and analyzed by confocal microscopy.

ZR-75-1 cells = test: GFP-TR3/ΔDBD localization and cytochrome c release in ZR-75-1 cells; type: cell-based; conditions: ZR-75-1, absence of any treatment
Method: as §1, with “The resulting supernatant was centrifuged at 10,000×g for 30 min at 4° C. to obtain the HM fraction. HM fraction was resuspended in 100 μl lysis buffer (10 mM Tris, pH 7.4, 150 mM NaCl, 1% Triton X-100, 5 mM EDTA, pH 8.0) for immunoblotting analysis.” left out
as §2

Calu-6 lung cancer cells = test: DAPI apoptosis assay in Calu-6 cells; type: cell-based
Method: (§3) Apoptosis assays—For nuclear morphological change analysis, cells were trypsinized, washed with PBS, fixed with 3.7% paraformaldehyde, and stained with DAPI (4,6-diamidino-2-phenylindole) (50 μg/ml) to visualize the nuclei by UV-microscopy. The percentages of apoptotic cells were determined by counting 300 GFP-positive cells, scoring cells having nuclear fragmentation and/or chromatin condensation.
(§4) DAPI staining was used to study the apoptotic effect of TR3/Bcl-2 interaction. 293T cells were transfected with GFP-TR3/ΔDBD alone or together with Bcl-2. After 36 h, nuclei were stained by DAPI and nuclear fragmentation and chromatin condensation were identified. Cells were also stained with anti-Bcl-2 antibody, followed by TRITC-conjugated secondary antibody (Sigma). Bcl-2 and GFP-ΔDBD expression and nuclear morphology were visualized by fluorescence microscopy, and the two images were overlaid. […] But, when Bcl-2 was cotransfected, a significant amount of transfected cells underwent apoptosis. For example, approximately 4% of cells transfected with either TR3/ΔDBD or Bcl-2 were apoptotic, compared to 35% of cell transfected with both. […] Cotransfection of Bcl-2, however, prevented BAX-induced apoptosis in these cells (see FIG. 4). The effect of Bcl-2 on apoptotic potential of TR3/ΔDBD in lung cancer and breast cancer cells was also investigated.

[1] = system: MCF-7 breast cancer cells; test: DAPI apoptosis assay in MCF-7 cells; type: cell-based
Method: as §3, §4

Bcl-2/ΔLoop = test: Co-IP assay with Bcl-2/ΔLoop; type: binding
Method: (§5) Therefore, TR3/ΔDBD was analyzed as to its interaction with a fragment of Bcl-2 comprising the first 80 amino acids (Bcl-2/1-80). […] The Bcl-2/1-80 fragment encompasses the N-terminal BH4 domain followed by an unstructured loop domain of approximately 50 amino acids length. To determine whether the BH4 domain or the loop region was responsible for binding to TR3/ΔDBD, TR3/ΔDBD interaction with Bcl-2 mutants lacking the BH4 domain (Bcl-2/ΔBH4) or the loop region (Bcl-2/ΔLoop) was analyzed. […] Thus, the loop region of Bcl-2 is involved in binding to TR3.

Bcl-2/ΔBH4 = biological target: T1, Bcl-2/ΔBH4 (Homo sapiens, UniProt P10415, DEL7-30); test: Co-IP assay with Bcl-2/ΔBH4; type: binding
T1 construct: expressed in transfected cells; host or cells: HEK293T
Method: as §5

LNCaP cells = test: Colocalization of transfected GFP-TR3/ΔDBD and Bcl-2 in LNCaP cells; type: cell-based; conditions: cotransfected with Bcl-2, 20 h
Method: Next, the interaction of transfected TR3 and Bcl-2 was analyzed.

[2] = system: peripheral blood lymphocytes (PBLs); test: TR3 subcellular localization in peripheral blood lymphocytes; type: cell-based, human; conditions: DsRed2-Mito
From the text: TR3 subcellular localization was studied by both confocal microscopy and subcellular fractionation approaches. For microscopy experiments, freshly isolated PBLs were transfected with GFP-TR3, then treated with phorbol ester TPA and the calcium ionophore ionomycin, which induce TR3-dependent apoptosis of T-lymphocytes.

Bcl-2 = biological target: T2, Bcl-2 (Homo sapiens, UniProt P10415); test: Bcl-2 conformation by immunoprecipitation with epitope-specific antibodies; type: binding
T2 construct: expressed in transfected cells; host or cells: HEK293T
From the text: Second, the effects of TR3/ΔDBD on Bcl-2 conformation were studied by immunoprecipitation assays.

T2 sequence (P10415 whole entry): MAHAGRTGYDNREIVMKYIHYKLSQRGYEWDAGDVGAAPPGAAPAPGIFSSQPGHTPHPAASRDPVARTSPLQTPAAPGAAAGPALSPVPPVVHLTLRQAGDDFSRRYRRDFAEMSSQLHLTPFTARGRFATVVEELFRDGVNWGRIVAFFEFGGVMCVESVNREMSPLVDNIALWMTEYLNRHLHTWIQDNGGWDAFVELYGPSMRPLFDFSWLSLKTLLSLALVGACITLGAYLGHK
T1 sequence (P10415 with tags, fused parts or gaps DEL7-30): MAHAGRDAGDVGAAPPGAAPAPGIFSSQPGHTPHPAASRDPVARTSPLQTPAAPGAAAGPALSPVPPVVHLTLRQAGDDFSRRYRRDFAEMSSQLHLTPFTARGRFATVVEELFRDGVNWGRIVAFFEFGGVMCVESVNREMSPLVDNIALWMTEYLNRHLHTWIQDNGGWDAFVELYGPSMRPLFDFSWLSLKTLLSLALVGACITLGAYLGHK

B1: TR3/ΔDBD: TR3 mutant with the DNA binding domain removed; used as GFP fusion (protein)
chain: MPCIQAQYGTPAPSPGPRDHLASDPLTPEFIKPTMDLASPEAAPAAPTALPSFSTFMDGYTGEFDTFLYQLPGTVQPCSSASSSASSTSSSSATSPASASFKFEDFQVYGCYPGPLSGPVDEALSSSGSDYYGSPCSAPSPSTPSFQPPQLSPWDGSFGHFSPSQTYLVLHRLQCARGFGDWIDSILAFSRSLHSLLVDVPAFACLSALVLITDRHGLQEPRRVEELQNRIASCLKEHVAAVAGEPQPASCLSRLLGKLPELRTLCTQGLQRIFYLKLEDLVPPPPIIDKIFMDTLPF
modifications: left off: large carriers; small tags and cut ends
notes: used as GFP fusion
cytochrome c release (293T cells; absence of Bcl-2 cotransfection): did not cause any release of cytochrome c | cytochrome c release (293T cells; co-expression with Bcl-2/Y108K): did not induce cyt c release | cytochrome c release (293T cells; co-transfection with Bcl-2/ΔTM): did not occur | TR3/ΔDBD and Bcl-2 colocalized cells displaying diffuse cyt c staining (293T cells; cotransfected with Bcl-2): Approximately 75% | cytochrome c release (293T cells; cotransfection with Bcl-2): significant release of cytochrome c | GFP-TR3/ΔDBD subcellular localization (MDA-MB-231 cells): targeted to mitochondria | cytochrome c release (MDA-MB-231 cells): caused release of cytochrome c from the mitochondria | GFP-TR3/ΔDBD subcellular localization (ZR-75-1 cells): targeted to mitochondria | cytochrome c release (ZR-75-1 cells): caused release of cytochrome c from the mitochondria | apoptosis (Calu-6 lung cancer cells; Calu-6, absence of Bcl-2): did not show any apoptotic effect | apoptosis (Calu-6 lung cancer cells; Calu-6, co-expression of Bcl-2): strong induction of apoptosis | apoptosis ([1]; MCF-7, absence of Bcl-2): did not show any apoptotic effect | apoptosis ([1]; MCF-7, co-expression of Bcl-2): strong induction of apoptosis | interaction with Bcl-2/ΔLoop (Co-IP) (Bcl-2/ΔLoop): did not | interaction with Bcl-2/ΔBH4 (Co-IP) (Bcl-2/ΔBH4): retained the ability to interact | transfected cells exhibiting colocalization with Bcl-2 (LNCaP cells): Approximately 30% | mitochondrial colocalization [2]: colocalized extensively with DsRed2-Mito | binding of Bcl-2 by antibody against BH3-binding pocket (Bcl-2): reduced binding | binding of Bcl-2 by antibody against BH3 domain (Bcl-2): enhancing binding | immunoprecipitation efficiency of antibody against whole Bcl-2 protein (Bcl-2): did not affect
